B3: Vps4^E233Q (full-length yeast Vps4 containing an E233Q mutation) (enzyme, Saccharomyces cerevisiae, UniProt P52917 1-437, looked up)
chain: MSTGDFLTKGIELVQKAIDLDTATQYEEAYTAYYNGLDYLMLALKYEKNPKSKDLIRAKFTEYLNRAEQLKKHLESEEANAAKKSPSAGSGSNGGNKKISQEEGEDNGGEDNKKLRGALSSAILSEKPNVKWEDVAGLEGAKEALKEAVILPVKFPHLFKGNRKPTSGILLYGPPGTGKSYLAKAVATEANSTFFSVSSSDLVSKWMGESEKLVKQLFAMARENKPSIIFIDQVDALTGTRGEGESEASRRIKTELLVQMNGVGNDSQGVLVLGATNIPWQLDSAIRRRFERRIYIPLPDLAARTTMFEINVGDTPCVLTKEDYRTLGAMTEGYSGSDIAVVVKDALMQPIRKIQSATHFKDVSTEDDETRKLTPCSPGDDGAIEMSWTDIEADELKEPDLTIKDFLKAIKSTRPTVNEDDLLKQEQFTRDFGQEGN
notes: Vps4 (vacuolar protein sorting 4), Saccharomyces cerevisiae, full length, with E233Q; Hexamer with ATP, dimer without ATP; written as the protomer because its self-association is what is measured; also called E233Q mutant; Vps4 E233Q mutant; source: E. coli BL21 (DE3), purified (Ni-NTA, apyrase treatment, SEC)

In data set [1] the target is B3. The data set is described as follows: SEC; Vps4 mutants at 5 uM with Vta1 at molar ratio 1:2, 1 mM ATP, 4 C, 1 h; Superose 6 10/300 GL in assembly buffer. The conditions noted are these: both partners purified.
Data set [2] deals with the molecule itself. Put plainly: cryo-EM structure; ATP-bound Vps4^E233Q-Vta1 complex (1.5- to 2-fold molar excess of Vta1, 1 mM ATP, Superose 6), no glutaraldehyde; no symmetry imposed; 4.2 A.
The next data set addresses T1, Vps4 (wild-type, yeast) (Saccharomyces cerevisiae, UniProt P52917 1-437, Cy5 maleimide (labelling efficiency 48%) in the single-molecule assay; unlabelled in the ATPase assay).
T1 sequence (looked up): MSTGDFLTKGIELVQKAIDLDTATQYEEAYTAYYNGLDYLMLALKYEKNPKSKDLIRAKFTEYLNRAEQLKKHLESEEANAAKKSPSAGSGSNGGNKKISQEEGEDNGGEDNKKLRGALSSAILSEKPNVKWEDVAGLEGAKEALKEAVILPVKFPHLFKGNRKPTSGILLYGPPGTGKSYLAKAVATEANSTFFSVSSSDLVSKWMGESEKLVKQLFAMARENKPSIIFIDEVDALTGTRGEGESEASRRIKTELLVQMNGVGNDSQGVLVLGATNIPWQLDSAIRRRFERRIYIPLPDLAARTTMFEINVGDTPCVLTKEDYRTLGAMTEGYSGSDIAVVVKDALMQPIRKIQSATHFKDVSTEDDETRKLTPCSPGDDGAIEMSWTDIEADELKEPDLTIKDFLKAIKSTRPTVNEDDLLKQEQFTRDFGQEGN
The data set is described as follows: cell-based or functional assay.

Data set [3] has as its target T2, Vps4^E233QC376S, Cy5-labelled (single-cysteine mutant) (Saccharomyces cerevisiae, UniProt P52917 1-437, E233Q | C376S, Cy5 maleimide on the single cysteine).
T2 construct: Vps4, Saccharomyces cerevisiae, with E233Q and C376S (only one cysteine left); source: E. coli BL21 (DE3), purified as for other mutant proteins, labelled with Cy5 maleimide
T2 sequence (looked up): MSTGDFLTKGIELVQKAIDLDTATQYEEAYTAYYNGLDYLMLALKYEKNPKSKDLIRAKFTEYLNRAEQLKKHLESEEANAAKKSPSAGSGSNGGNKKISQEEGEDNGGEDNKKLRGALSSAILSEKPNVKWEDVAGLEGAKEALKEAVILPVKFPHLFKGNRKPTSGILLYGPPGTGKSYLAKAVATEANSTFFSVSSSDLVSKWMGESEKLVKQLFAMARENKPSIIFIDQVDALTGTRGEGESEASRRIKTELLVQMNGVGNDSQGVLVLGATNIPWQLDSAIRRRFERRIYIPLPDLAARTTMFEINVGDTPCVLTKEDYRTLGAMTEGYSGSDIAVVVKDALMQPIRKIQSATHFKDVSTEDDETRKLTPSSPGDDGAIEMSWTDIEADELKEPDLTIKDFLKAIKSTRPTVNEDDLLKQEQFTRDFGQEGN
The data set is described as follows: fluorescence of two dyes in the SEC-separated complex; Cy5-Vps4 and Cy3-Vta1 single-cysteine mutants incubated at molar ratio 1:2 with ATP on ice 1 h, complex separated by SEC in assembly buffer; concentrations from standard curves of fluorescence. As to conditions: both partners purified.

Data set [4] deals with the molecule itself. The data set is described as follows: SEC-MALS; 200 ul of 5 mg/ml (50 uM) Vps4^E233Q preincubated with 1 mM ATP at 4 C for 1 h; Superdex 200 10/300 GL; assembly buffer (20 mM HEPES pH 7.5, 100 mM NaCl, 1 mM DTT, 2 mM MgCl2, 1 mM ATP).
Data set [5] concerns the molecule itself. Put plainly: SEC; oligomeric state without ATP (Supplementary Fig. 9).
Data set [6] deals with the molecule itself. Put plainly: SEC; oligomeric state with ATP: each mutant at 100 uM incubated with 1 mM ATP at 4 C for 1 h; Superdex 200 10/300 GL in assembly buffer.

B1: Vta1 (Vps twenty associated 1) (natural protein, Saccharomyces cerevisiae)
chain: MASNAARVVATAKDFDKVGLGIIGYYLQLYAVELILSEEDRSQEMTALATELLDTIEAFKKEIGGESEAEDSDKSLHVMNTLIHDQEKAKIYMLNFTMSLYNEKLKQLKDGPWDVMLKRSLWCCIDLFSCILHLWKENISETSTNSLQKRIKYCKIYLSKLAKGEIGSSDEKTLDYADFADDSEEIKDEDVDHQTSDLENNNNDKVEGLAPKDQTTSYEPVDEVPEFIDDADSVNEEEQTVDKNEDAITKDEQQVVKKEVDLTRPSAPSEPAAAEHKSYTKDELTKIMDRASKIEQIQKLAKYAISALNYEDLPTAKDELTKALDLLNSI
notes: Vta1, Saccharomyces cerevisiae, gene amplified from yeast genomic DNA; also called Vta1 dimer; source: E. coli BL21 (DE3), purified (Ni-NTA, apyrase treatment, SEC)
As to B1, the binding result in data set [1] and in data set [2] was “binds” throughout. Moreover, in the data set with Vps4 (wild-type, yeast), the “ATPase activity (malachite green) of 1 uM wild-type Vps4 in the presence of Vta1” value was determined as 2 fold.

B2: Vta1^C124S154S, Cy3-labelled (single-cysteine mutant) (natural protein, Saccharomyces cerevisiae)
chain: MASNAARVVATAKDFDKVGLGIIGYYLQLYAVELILSEEDRSQEMTALATELLDTIEAFKKEIGGESEAEDSDKSLHVMNTLIHDQEKAKIYMLNFTMSLYNEKLKQLKDGPWDVMLKRSLWCSIDLFSCILHLWKENISETSTNSLQKRIKYSKIYLSKLAKGEIGSSDEKTLDYADFADDSEEIKDEDVDHQTSDLENNNNDKVEGLAPKDQTTSYEPVDEVPEFIDDADSVNEEEQTVDKNEDAITKDEQQVVKKEVDLTRPSAPSEPAAAEHKSYTKDELTKIMDRASKIEQIQKLAKYAISALNYEDLPTAKDELTKALDLLNSI
modifications: Cy3 maleimide on the single cysteine
notes: Vta1, Saccharomyces cerevisiae, with C124S and C154S (only one cysteine left); source: E. coli BL21 (DE3), purified as for other mutant proteins, labelled with Cy3 maleimide
As for B2, the “stoichiometry N” value in data set [3] is 2.06 Vta1/Vps4^E233Q (molar ratio).
B3: the “stoichiometry N” value in data set [4] was determined as 6; in data set [5], 2.

B4: Vps4 mutant E233QR325A (enzyme, Saccharomyces cerevisiae, UniProt P52917 1-437, looked up)
chain: MSTGDFLTKGIELVQKAIDLDTATQYEEAYTAYYNGLDYLMLALKYEKNPKSKDLIRAKFTEYLNRAEQLKKHLESEEANAAKKSPSAGSGSNGGNKKISQEEGEDNGGEDNKKLRGALSSAILSEKPNVKWEDVAGLEGAKEALKEAVILPVKFPHLFKGNRKPTSGILLYGPPGTGKSYLAKAVATEANSTFFSVSSSDLVSKWMGESEKLVKQLFAMARENKPSIIFIDQVDALTGTRGEGESEASRRIKTELLVQMNGVGNDSQGVLVLGATNIPWQLDSAIRRRFERRIYIPLPDLAARTTMFEINVGDTPCVLTKEDYATLGAMTEGYSGSDIAVVVKDALMQPIRKIQSATHFKDVSTEDDETRKLTPCSPGDDGAIEMSWTDIEADELKEPDLTIKDFLKAIKSTRPTVNEDDLLKQEQFTRDFGQEGN
notes: Vps4, Saccharomyces cerevisiae, with E233Q and R325A; also called E233QR325A mutant; source: E. coli BL21 (DE3), purified (Ni-NTA, apyrase treatment, SEC)
Regarding B4, the entries for the “stoichiometry N” value in data set [6] and in data set [5] were 6 and 2, respectively.

Source of the values: publication PMC5520056, “Cryo-EM structures of the ATP-bound Vps4^E233Q hexamer and its complex with Vta1 at near-atomic resolution” (Nature Communications, 2017).
